The record followed here is paper PMC5820116 (SLAS discovery : advancing life sciences R & D, 2017).

One may read the Km as the concentration of substrate that gives half-maximal velocity.

Substrate in the series: Nc1ncnc2c1ncn2[C@@H]1O[C@H](COP(=O)(O)OP(=O)(O)OP(=O)(O)O)[C@@H](O)[C@H]1O
Description: ATP:PPi exchange steady-state kinetics. It counts as biochemical, Pseudomonas aeruginosa. The conditions noted are these: Mg2+ active region of the catalytic domain formed by the three structural motifs.

B1: Aspartyl-tRNA synthetase (AspRS) (Pseudomonas aeruginosa PAO1) (protein)
chain: MMRSHYCGQLNESLDGQEVTLCGWVHRRRDHGGVIFLDVRDREGLAQVVFDPDRAETFAKADRVRSEFVVKITGKVRLRPEGARNPNMASGSIEVLGYELEVLNQAETPPFPLDEYSDVGEETRLRYRFIDLRRPEMAAKLKLRARITSSIRRYLDDNGFLDVETPILGRPTPEGARDYLVPSRTYPGHFFALPQSPQLFKQLLMVAGFDRYYQIAKCFRDEDLRADRQPEFTQIDIETSFLDESDIIGITEKMVRQLFKEVLDVEFDEFPHMPFEEAMRRYGSDKPDLRIPLELVDVADQLKEVEFKVFSGPANDPKGRVAALRVPGAASMPRSQIDDYTKFVGIYGAKGLAYIKVNERAKGVEGLQSPIVKFIPEANLNVILDRVGAVDGDIVFFGADKAKIVCDALGALRIKVGHDLKLLTREWAPMWVVDFPMFEENDDGSLSALHHPFTSPKCTPAELEANPGAALSRAYDMVLNGTELGGGSIRIHDKSMQQAVFRVLGIDEAEQEEKFGFLLDALKYGAPPHGGLAFGLDRLVMLMTGASSIREVIAFPKTQSAGDVMTQAPGSVDGKALRELHIRLREQPKAE
In the case of B1, the Michaelis constant (Km) was 495 µM.
